From US20190031754A1 (Scripps Research, published 2019)
Substitutions are numbered along the chain they refer to. Read-outs that look alike come from different tables or passages of the source.

B1: chimeric rabbit/human Fab ERR2-302 (Fab, V domains shown)
VH: QKQLVESGGGLVKPGGSLTLTCTVSGFSLSSYAIGWVRQAPGNGLEWIGIINSYGSTYYASWAKSRSTITRNTNLNTVTLKMTSLTAADTATYFCARSPYGYVSAWGYHRLDLWGQGTLVTISS
VL: SYELTQLPSVSVSLGQTARITCGGASIGSKVVHWYQQKPGLAPGLLIYDDDERPSGVPDRFSGSNSGDTATLTISGAQAGDEAEYYCQLWDGSDVVFGGGTQLTVTG
B2: chimeric rabbit/human Fab ERR2-TOP2 (Fab, V domains shown)
VH: QSLEESGGRLVTPGTPLTLTCTVSGFSLSSYAISWVRQAPGKGLEWIGTIGTRGDTAYANWAKGRFTISKTSTTVTLKMTSPTTEDTATYFCARELVAGGGSDLWGPGTLVTVSS
VL: DVVMTQTPSSVSAVVGGTVTIKCQASQSITSWLSWYQQKPGQPPKLLIYGASHLASGVPSRFKGSGYGTEFTLTISGIQREDAATYYCLGGYLSASYQTAFGGGTKVEIK
B3: chimeric rabbit/human Fab XBR2-416 (Fab, V domains shown)
VH: QEQLEESGGRLVTPGTPLTLTCTVSGFSLSSYWMSWVRQAPGKGLEWIGTITPGGNTDYATWAKARFTVSKTSTTVDLKITSPTTEDTATYFCARGIGGAADLWGPGTLVTISS
VL: AQVLTQTPSSTSAAVGGTVTIKCQASQSISSSDLSWYQQKPGQPPKLLIYATSYLASGVPSRFKGSGSGTEYTLTISGVQREDAATYYCLGGYPNTSYRSAFGGGTKVEIK
notes: also called Fab 4-16
B4: chimeric rabbit/human Fab XBR2-TOP9 (Fab, V domains shown)
VH: QSVEESRGRLVTPGTPLTLICTVSGIDLSSYNIQWVRQAPGKGLEYIGYINTDGSAYYASWAKGRFTISKTSTTVDLKITSPTTEDTATYFCARGGYASGFNLWGPGTLVTISS
VL: DVVMTQTPSSTSAAVGGTVTIKCQASQNIGPWLSWYQQKPGQPPKQLIYAASTLASGVPSRFKGSGSGTDYTLTISGVQREDAATYYCLGWHSWSDDGWAFGAGTNVEIK
B5: chimeric rabbit/human Fab XBR2-401 (Fab, V domains shown)
VH: QSVKESEGGLFKPTDTLTLTCTVSGFSLSSYGVTWVRQAPGSGLEWIGYINTAGNTYYASWAKSRSTITRNTNENTVTLKMTSLTAADTATYFCARDWTSLNIWGPGTLVTVSS
VL: DPMLTQTPSSTSTAVGDTVTIKCQASQSISSDLSWYQQKPGQRPKLLIYQASTLASGVPSRFKGSGYGTEYTLTISGVQREDAAIYYCLGGYADASYRTAFGGGTKLEIK
notes: also called Fab 4-1
B6: XBR2-401 (mAb003) (antibody, human IgG1, V domains shown)
VH: B5 VH
VL: B5 VL
notes: Full-length chimeric rabbit/human IgG1 (kappa) with C-terminal tags HC: LPETG-Strep, LC: G5SLPETG-Strep
B7: chimeric rabbit/human Fab XBR2-TOP72 (Fab, V domains shown)
VH: QEQLEESGGRLVTPGTPLTLTCTVSGIDLSSNAMSWVRQAPGKGLEYVGFINGGGGVHYASWARGRFTISKTSTTVDLKITSPTTEDTATYFCARAGTTYYTSFNLWGPGTLVTISS
VL: QFVLTQSPSASAALGSSAKLTCTLSSAHKTYTIAWYQQQQGEAPRLLMMLRTDGSYTKGTGVPDRFSGSSSGADRYLIISSVQADDAAGYYCGADYSGGYVFGGGTQLTVTG
B8: chimeric rabbit/human Fab XBR2-327 (Fab, V domains shown)
VH: QEQLKESGGGLFKPTDTLTLTCTVSGFSLSSGAISWVRQAPGNGLEYIGFVNSLGNTYYANWAKSRSAITRNTNENTVTLKMTSLAAADTATYFCAKDYGNWAFDPWGPGTLVTVSS
VL: DPVLTQTPSSVSAAVGGTVAINCQASQSISSYLSWYQQKPGQPPKLLIYGASKLASGVPSRFSGSGSGTEYTLTISGVQREDAATYYCLGGYASASYRTAFGGGTKLEIK
B9: chimeric rabbit/human Fab ERR2-317 (Fab, V domains shown)
VH: QSLEESGGRLVTPGTPLTLTCTASGFSLSSYDMIWVRQAPGKGLEYIGIINAGGNTYYASWAKGRFTISRTSTTVDLKMTSPTTEDTATYFCARGSSWTGDIWGPGTLVTVSS
VL: B8 VL with V11T, A20T, N22K, L46Q, G50A, K53T, S63K, R98Q, L107V
B10: XBR2-327 (mAb007) (antibody, human IgG1, V domains shown)
VH: B8 VH
VL: B8 VL
notes: Full-length chimeric rabbit/human IgG1, human IgH-gamma1 and IgL-kappa constant regions; C-terminal tags HC: LPETG-Strep, LC: G5SLPETG-Strep
B11: chimeric rabbit/human Fab ERR2-316 (Fab, V domains shown)
VH: QKQLVESGGRLVTPGGSLTLTCTVSGFSLSKYGVSWVRQAPGSGLEYIGTIGGSGTSYYASWAKSRSTITRNTNLNTVTLKMTSLTAADTATYFCARYFGWNTGFDIWGPGTLVTISS
VL: DPVMTQTPSSVSEPVGGTVTIKCQASQSISNALAWYQQKPGQPPKRLIYKASTPASGVPSRFKGSRSGTEYTLTISGVQREDAATYYCLGFSVVSNDGWAFGAGTNVEIK
B12: chimeric rabbit/human Fab ERR2-308 (Fab, V domains shown)
VH: QEQLEESGGRLVTPGTPLTLTCAVSGFSLSNYAMGWVRQAPGEGLEYIGWISAGGGAYYASWVNGRFTISKTSSTVDLKMTSLTAADTATYFCARGASNGCDLWGPGTLVTVSS
VL: DPMLTQTPSSVSAVVGGTVTIKCQASQSITSWLSWYQQKPGQPPKLLIYGASHLASGVPSRFKGSGYGTEFTLTISGIQREDAATYYCLGGYSNSDIVFGGGTELEIL
B13: chimeric rabbit/human Fab ERR2-TOP35 (Fab, V domains shown)
VH: QSVKESEGGLFKPMDTLTLTCTVSGFSLNTYGVSWVRQAPGNGLEWIGAVGSSGATNYASWAKSRSTITRNTNENTVTLKMTSLTAADTATYFCARDGYYSSGWGPYFSIWGPGTLVTVSS
VL: SFVLTQPASVQVNLGQTVSLTCTAETLRSSYASWYQQKPGQAPVLLIYRDTSRPSGVPDRFSGSSSGNTATLTISGAQAGDEADYYCATSDGSGSRYYVFGGGTQLTVTG
B14: chimeric rabbit/human Fab XBR2-433 (Fab, V domains shown)
VH: B13 VH with M14T, N29S, V50I, A55S, T56A, S64D, E74L, S109N, V119I
VL: SFVLTQPASVQVNLGQTVSLTCTADTLSRSYASWYQQKPGQAPVLLIYRDTSRPSGVPDRFSGSSSGNTATLTISGAQAGDEADYYCATSGGSGSNPQYVFGGGTQLTVTG
notes: also called Fab 4-33

What was measured:
BSA = molecular target: T1, BSA (bovine, UniProt P02769); test: ELISA, coated antigen 100 ng/well, anti-His HRP, absorbance 405 nm
T1 construct: also called bovine serum albumin

hFc-hROR1 = molecular target: T2, hFc-hROR1 (human, UniProt Q01973 30-403, limits assumed); test: as above
T2 construct: also called ROR1 (ELISA control); not shown: human Fc (hFc) of pCEP4-hFc-hROR1 (Yang et al., 2011)

[1] = molecular target: T3, full-length human ROR2 on cells (human, UniProt Q01974 34-943); test: flow cytometry, 63-12 cells expressing hROR2, Fab 1 µg/100 µL, anti-His Alexa Fluor 488
T3 construct: whole, on cells; the cells are named under assay; In the Western blot it is denatured; also called hROR2; cell surface human ROR2

[2] = molecular target: T4, recombinant human twin strep-tagged ROR2 extracellular domain (human, UniProt Q01974 34-403); test: ELISA, IgG titrated on coated twin-strep human ROR2 ECD; fit printed as IC50
T4 construct: extracellular domain; Made in HEK293T, Streptactin purified; also called Human ROR2-TwinStrep; human ROR2

[3] = molecular target: T5, anti-human Fc (Jackson ImmunoResearch, 109-006-008); test: ELISA, IgG titrated on coated anti-human Fc; fit printed as IC50
T5 construct: Coated on a control plate to capture the chimeric IgG1 antibodies through their human Fc; also called IgG

[4] = molecular target: T4, recombinant human twin strep-tagged …; test: SPR, Biacore T200, IgG captured by anti-human Fcγ, ROR2-TwinStrep as analyte, 1:1 Langmuir
[5] = molecular target: T6, recombinant cynomolgus twin strep-tagged ROR2 extracellular domain (cynomolgus monkey, UniProt A0A7N9D5U8 34-403); test: as above
T6 construct: extracellular domain; Made in HEK293T, Streptactin purified; also called cynomolgus ROR2; cynomolgus ROR2-TwinStrep

[6] = molecular target: T5, anti-human Fc (Jackson ImmunoResearch, …); test: ELISA, IgG titrated on coated anti-human Fc; fit printed as IC50; remark: listed apart in the source
[7] = molecular target: T4, recombinant human twin strep-tagged …; test: ELISA, IgG titrated on coated twin-strep human ROR2 ECD; fit printed as IC50; remark: listed apart in the source
[8] = molecular target: T6, recombinant cynomolgus twin …; test: ELISA, IgG titrated on coated twin-strep cynomolgus ROR2 ECD; fit printed as IC50

T2 sequence (Q01973 30-403 limits assumed): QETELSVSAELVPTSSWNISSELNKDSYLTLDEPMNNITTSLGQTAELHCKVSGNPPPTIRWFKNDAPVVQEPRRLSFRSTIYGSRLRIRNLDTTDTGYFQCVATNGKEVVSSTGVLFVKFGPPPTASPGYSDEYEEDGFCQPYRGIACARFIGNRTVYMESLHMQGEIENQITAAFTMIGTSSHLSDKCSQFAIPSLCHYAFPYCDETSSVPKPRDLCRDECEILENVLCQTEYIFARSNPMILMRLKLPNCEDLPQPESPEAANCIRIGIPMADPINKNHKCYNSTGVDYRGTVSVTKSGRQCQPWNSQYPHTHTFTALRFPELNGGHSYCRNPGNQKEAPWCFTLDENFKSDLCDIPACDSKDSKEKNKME
T1 sequence (P02769 25-607 limits assumed): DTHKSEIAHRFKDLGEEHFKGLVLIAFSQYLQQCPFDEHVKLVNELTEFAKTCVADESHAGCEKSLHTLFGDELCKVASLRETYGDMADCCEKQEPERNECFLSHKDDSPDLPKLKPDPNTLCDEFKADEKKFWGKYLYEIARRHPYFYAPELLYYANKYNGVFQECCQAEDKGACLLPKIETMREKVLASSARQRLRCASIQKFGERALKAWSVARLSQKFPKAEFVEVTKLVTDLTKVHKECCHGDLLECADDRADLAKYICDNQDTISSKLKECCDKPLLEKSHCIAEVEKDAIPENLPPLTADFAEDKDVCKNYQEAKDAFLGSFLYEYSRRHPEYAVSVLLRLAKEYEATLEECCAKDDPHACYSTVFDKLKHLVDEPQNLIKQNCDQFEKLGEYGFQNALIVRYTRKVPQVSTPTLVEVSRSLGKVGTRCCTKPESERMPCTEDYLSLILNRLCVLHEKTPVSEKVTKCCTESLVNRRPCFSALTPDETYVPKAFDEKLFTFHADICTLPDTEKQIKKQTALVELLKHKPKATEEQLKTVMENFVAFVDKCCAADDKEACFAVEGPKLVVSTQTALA

Binder	binding result (BSA)	binding result (hFc-hROR1)	other results
B1	no binding (tested: 100 ng/50 µL)	no binding (tested: 100 ng/50 µL)	–
B2	no binding (tested: 100 ng/50 µL)	no binding (tested: 100 ng/50 µL)	binding result [1]: binds
B3	no binding (tested: 100 ng/50 µL)	no binding (tested: 100 ng/50 µL)	–
B4	no binding (tested: 100 ng/50 µL)	no binding (tested: 100 ng/50 µL)	binding result [1]: binds
B5	no binding (tested: 100 ng/50 µL)	no binding (tested: 100 ng/50 µL)	–
B6	–	–	IC50 [2]: 0.0419 µg/mL; IC50 [3]: 0.0856 µg/mL; Kd [4]: ≤ 10.2 nM; Kd [5]: ≤ 1.1 nM; IC50 [6]: 6.8 ng/mL; IC50 [7]: 0.0505 µg/mL; IC50 [8]: 0.0433 µg/mL
B7	no binding (tested: 100 ng/50 µL)	no binding (tested: 100 ng/50 µL)	binding result [1]: binds
B8	no binding (tested: 100 ng/50 µL)	no binding (tested: 100 ng/50 µL)	–
B9	no binding (tested: 100 ng/50 µL)	no binding (tested: 100 ng/50 µL)	–
B10	–	–	IC50 [2]: 0.00057 µg/mL; IC50 [3]: 0.0433 µg/mL; IC50 [6]: 10.2 ng/mL
B11	no binding (tested: 100 ng/50 µL)	no binding (tested: 100 ng/50 µL)	–
B12	no binding (tested: 100 ng/50 µL)	no binding (tested: 100 ng/50 µL)	–
B13	no binding (tested: 100 ng/50 µL)	no binding (tested: 100 ng/50 µL)	–
B14	no binding (tested: 100 ng/50 µL)	no binding (tested: 100 ng/50 µL)	–
